From patent publication US20190330277A1 (PIRBRIGHT INSTITUTE, published 2019) come the findings set out here.

Common to all, as to experiment: ELISA, variant from culture supernatant on Ni-NTA plate
The target of assay [1] is T1, RB94 sc9 DS-CAV1 A149C-Y458C L373R Long S190V.
T1 construct: also called DS2-v30

For assay [2], the target named is T2, RB94 sc9 DS-CAV1 N183GC-N428C L373R Long S190V.
T2 construct: also called DS2-v13

For assay [3], the target named is T3, 391-2-DS-Cav1-sc9deleteFS 99C-362C.
T3 construct: also called DS2-v16

In assay [4] the target is T4, 391-2-DS-Cav1_ sc9_S485C-A490C.
T4 construct: also called DS2-v28

In assay [5] the target is T5, 391-2-DS-Cav1_ sc9_I395C-A490C.
T5 construct: also called DS2-v27

In assay [6] the target is T6, 391-2-DS-Cav1-sc9deleteFS 100C-361C.
T6 construct: also called DS2-v29

The target in assay [7] is T7, RB94 sc9 DS-CAV1 A149C-Y458C L373R Long.
T7 construct: also called DS2-v22

In assay [8] the target is T8, RB94 sc9 DS-CAV1 A149C-Y458C L373R.
T8 construct: also called DS2-v20

The target in assay [9] is T9, 391-2-DS-Cav1-sc9 100C-361C.
T9 construct: also called DS2-v19

For assay [10], the target named is T10, RB94 hu/bov DS-Cav1 Long FdPL.
T10 construct: also called sc-v20

B1: D25 antibody (antibody, V domains shown)
VH: QVQLVQSGAEVKKPGSSVMVSCQASGGPLRNYIINWLRQAPGQGPEWMGGIIPVLGTVHYAPKFQGRVTITADESTDTAYIHLISLRSEDTAMYYCATETALVVSTTYLPHYFDNWGQGTLVTVSS
VL: DIQMTQSPSSLSAAVGDRVTITCQASQDIVNYLNWYQQKPGKAPKLLIYVASNLETGVPSRFSGSGSGTDFSLTISSLQPEDVATYYCQQYDNLPLTFGGGTKVEIK
notes: also called mAb D25
As to B1, the ELISA binding value stood at 0.133 in assay [1]; 0.206 in assay [2]; 0.197 in assay [3]; 0.136 in assay [4]; 0.136 in [5]; 0.133 in assay [6]. Further, the ELISA binding value was 0.158 in assay [7], 0.175 in assay [8] and 0.181 in assay [9].

B2: MPE8 antibody (antibody, V domains shown)
VH: EVQLVESGGGLVKPGGSLRLSCAASGFTFSSYSMNWVRQAPGKGLEWVSSISASSSYSDYADSAKGRFTISRDNAKTSLFLQMNSLRAEDTAIYFCARARATGYSSITPYFDIWGQGTLVTVSS
VL: QSVVTQTPSVSGAPGQRVTISCTGSSSNIGAGYDVHWYQQLPGTAPKLLIYDNNNRPSGVPDRFSASKSGTSASLAITGLQAEDEADYYCQSYDRNLSGVFGTGTKVTVL
notes: also called mAb MPE8
Consider B2, for which the ELISA binding value in assay [1] amounted to 0.0477; in assay [2] it was 0.155; in [3] it was 0.2; in [4], 0.0579; in [5] it was 0.0919; in [6], 0.0592. In addition, the ELISA binding value came to 0.0692 in assay [7], 0.154 in assay [8], 0.173 in [9] and 1.38 in assay [10].
